# Assay results published in patent US20170088610A1 (RINAT NEUROSCIENCE, published 2017).
# Like-named read-outs stand apart in the source and are kept apart here.
# Legend:
# [1] = target: T1, human nerve growth factor (human, UniProt P01138 122-241); experiment: BIAcore SPR screen, Fab over immobilised human NGF
# T1 construct: Immobilised on CM5 chips for BIAcore, soluble in neuron survival assays; also called human NGF; hNGF
# Protocol: (§1) A screening BIAcore assay was optimized to determine the affinity of Fab clones from libraries. Supernatants of small culture lysates were injected at […] for 2 min. Dissociation times of 10 to 15 minutes were used for determination of a single exponential dissociation rate (koff) using BIAevaluation software. […] Clones showing improved (slower) koff values were expressed at large scale and full kinetic parameters, kₒₙ and koff, were determined on purified protein.
# (§2) 20-80 clones from each small library were screened using BIAcore analysis as described herein. Samples were simultaneously analyzed by BIAcore for binding affinity to NGF in one channel of the BIAcore chip and for presence of Fab by binding to a penta-histag antibody in another channel of the sensor chip, to detect the his tag at the C terminus of the heavy chain. Clones that expressed protein were classified as having the same affinity, worse affinity, better affinity or no binding, using koff to classify: The results of this analysis are shown in Table 5.
# [2] = target: T1, human nerve growth factor; experiment: BIAcore SPR screen, Fab over immobilised human NGF; KD calculated from koff with kon 4e4 M-1s-1
# Protocol: as §1, §2
# [3] = target: T1, human nerve growth factor; experiment: as above; remark: listed apart in the source
# Protocol: as §1
# [4] = target: T1, human nerve growth factor; experiment: BIAcore SPR screen, Fab over immobilised human NGF; remark: listed apart in the source
# Protocol: as §1
# [5] = target: T1, human nerve growth factor; experiment: BIAcore SPR screen, Fab over immobilised human NGF; remark: listed apart in the source
# Protocol: as §1
# (§3) For affinity screening experiments, each library was further paired with the corresponding CDR-grafted light or heavy chain (for example, the H1/H2 library was paired with CDR-grafted light chain), the antibody was expressed, and affinity to human NGF of the individual clones was screened using the BIACORE surface plasmon resonance (SPR) system (BIAcore, Inc. Piscataway, N.J.) according to the manufacturer's instructions and as described above. koff, kₒₙ and KD were determined. Antibody clones were ranked based on koff rates, since generally most variation in affinity is seen in koff rates, and further because koff rates are independent of antibody concentration.
# [6] = target: T1, human nerve growth factor; experiment: BIAcore SPR screen, Fab over immobilised human NGF; KD calculated from koff with kon 4e4 M-1s-1; remark: listed apart in the source
# Protocol: as §1, §3
# T1 sequence (P01138 122-241 limits assumed): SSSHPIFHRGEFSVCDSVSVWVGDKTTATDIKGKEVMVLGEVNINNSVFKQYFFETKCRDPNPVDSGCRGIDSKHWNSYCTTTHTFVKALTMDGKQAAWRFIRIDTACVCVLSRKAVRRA
Binder,koff [5] [s⁻¹],Kd [6] [nM],other results
"8L2-6D5 Fab with CDR L3 mutation Y96R (Fab, V domains shown, See note of m8) VH: QVQLQESGPGLVKPSETLSLTCTVSGFSLIGYDINWIRQPPGKGLEWIGMIWGDGTTDYNSALKSRVTISKDTSKNQFSLKLSSVTAADTAVYYCARGGYYYGTSYYFDYWGQGTLVTVS VL: DIQMTQSPSSLSASVGDRVTITCRASQDISNHLNWYQQKPGKAPKLLIYYISRFHSGVPSRFSGSGSGTDFTFTISSLQPEDIATYYCQQSKTLPRTFGQGTKLEIKR",,,koff [1]: 0.0017 s⁻¹; Kd [2]: 42 nM
"8L2-6D5 template Fab with L_S91E; L_K92A and H_Y101W; H_G103A (Fab, V domains shown, See note of m8) VH: QVQLQESGPGLVKPSETLSLTCTVSGFSLIGYDINWIRQPPGKGLEWIGMIWGDGTTDYNSALKSRVTISKDTSKNQFSLKLSSVTAADTAVYYCARGGYWYATSYYFDYWGQGTLVTVS VL: DIQMTQSPSSLSASVGDRVTITCRASQDISNHLNWYQQKPGKAPKLLIYYISRFHSGVPSRFSGSGSGTDFTFTISSLQPEDIATYYCQQEATLPYTFGQGTKLEIKR",,,Kd [3]: 13 nM; koff [4]: 0.00055 s⁻¹
"H19-L129 template Fab with L_S91E; L_K92K and H_Y101Y; H_G103A (Fab, V domains shown, See note of m8) VH: QVQLQESGPGLVKPSETLSLTCTVSGFSLIGYDLNWIRQPPGKGLEWIGIIWGDGTTDYNSAVKSRVTISKDTSKNQFSLKLSSVTAADTAVYYCARGGYYYATSYYFDYWGQGTLVTVS VL: DIQMTQSPSSLSASVGDRVTITCRASQSISNNLNWYQQKPGKAPKLLIYYTSRFHSGVPSRFSGSGSGTDFTFTISSLQPEDIATYYCQQEKTLPYTFGQGTKLEIKR",,,Kd [3]: 0.5 nM; koff [4]: 2e-05 s⁻¹
"H19-L129 template Fab with L_S91E; L_K92R and H_Y101Y; H_G103A (Fab, V domains shown, See note of m8) VH: QVQLQESGPGLVKPSETLSLTCTVSGFSLIGYDLNWIRQPPGKGLEWIGIIWGDGTTDYNSAVKSRVTISKDTSKNQFSLKLSSVTAADTAVYYCARGGYYYATSYYFDYWGQGTLVTVS VL: DIQMTQSPSSLSASVGDRVTITCRASQSISNNLNWYQQKPGKAPKLLIYYTSRFHSGVPSRFSGSGSGTDFTFTISSLQPEDIATYYCQQERTLPYTFGQGTKLEIKR",,,Kd [3]: 0.37 nM; koff [4]: 1.5e-05 s⁻¹
"heavy chain library clone H9 (Fab, V domains shown, See note of m8) VH: QVQLQESGPGLVKPSETLSLTCTVSGFSLIGYDVSWIRQPPGKGLEWIGIIWGDGTTDYNSSVKSRVTISKDTSKNQFSLKLSSVTAADTAVYYCARGGYYYGTSYYFDYWGQGTLVTVS VL: DIQMTQSPSSLSASVGDRVTITCRASQDISNHLNWYQQKPGKAPKLLIYYISRFHSGVPSRFSGSGSGTDFTFTISSLQPEDIATYYCQQSKTLPYTFGQGTKLEIKR",0.00041,10.2,
"heavy chain library clone H18 (Fab, V domains shown, See note of m8) VH: QVQLQESGPGLVKPSETLSLTCTVSGFSLIGYDATWIRQPPGKGLEWIGGIWGDGTTDYNSAVKSRVTISKDTSKNQFSLKLSSVTAADTAVYYCARGGYYYGTSYYFDYWGQGTLVTVS VL: DIQMTQSPSSLSASVGDRVTITCRASQDISNHLNWYQQKPGKAPKLLIYYISRFHSGVPSRFSGSGSGTDFTFTISSLQPEDIATYYCQQSKTLPYTFGQGTKLEIKR",0.00042,10.5,
"heavy chain library clone H19 (Fab, V domains shown, See note of m8) VH: QVQLQESGPGLVKPSETLSLTCTVSGFSLIGYDLNWIRQPPGKGLEWIGIIWGDGTTDYNSAVKSRVTISKDTSKNQFSLKLSSVTAADTAVYYCARGGYYYGTSYYFDYWGQGTLVTVS VL: DIQMTQSPSSLSASVGDRVTITCRASQDISNHLNWYQQKPGKAPKLLIYYISRFHSGVPSRFSGSGSGTDFTFTISSLQPEDIATYYCQQSKTLPYTFGQGTKLEIKR",0.00024,6,
"heavy chain library clone H28 (Fab, V domains shown, See note of m8) VH: QVQLQESGPGLVKPSETLSLTCTVSGFSLIGYDSTWIRQPPGKGLEWIGSIWGDGTTDYNSALKSRVTISKDTSKNQFSLKLSSVTAADTAVYYCARGGYYYGTSYYFDYWGQGTLVTVS VL: DIQMTQSPSSLSASVGDRVTITCRASQDISNHLNWYQQKPGKAPKLLIYYISRFHSGVPSRFSGSGSGTDFTFTISSLQPEDIATYYCQQSKTLPYTFGQGTKLEIKR",0.00075,18.7,
"heavy chain library clone H109 (Fab, V domains shown, paired with the CDR-grafted light chain; See note of m8) VH: QVQLQESGPGLVKPSETLSLTCTVSGFSLIGYDSNWIRQPPGKGLEWIGIIWGDGTTDYNSALKSRVTISKDTSKNQFSLKLSSVTAADTAVYYCARGGYYYGTSYYFDYWGQGTLVTVS VL: DIQMTQSPSSLSASVGDRVTITCRASQDISNHLNWYQQKPGKAPKLLIYYISRFHSGVPSRFSGSGSGTDFTFTISSLQPEDIATYYCQQSKTLPYTFGQGTKLEIKR",0.00016,4,
"heavy chain library clone H222 (Fab, V domains shown, See note of m8) VH: QVQLQESGPGLVKPSETLSLTCTVSGFSLIGYDVTWIRQPPGKGLEWIGGIWGDGTTDYNSAVKSRVTISKDTSKNQFSLKLSSVTAADTAVYYCARGGYYYGTSYYFDYWGQGTLVTVS VL: DIQMTQSPSSLSASVGDRVTITCRASQDISNHLNWYQQKPGKAPKLLIYYISRFHSGVPSRFSGSGSGTDFTFTISSLQPEDIATYYCQQSKTLPYTFGQGTKLEIKR",0.00038,9.5,
"heavy chain library clone H225 (Fab, V domains shown, See note of m8) VH: QVQLQESGPGLVKPSETLSLTCTVSGFSLIGYDVTWIRQPPGKGLEWIGGIWGDGTTDYNSSVKSRVTISKDTSKNQFSLKLSSVTAADTAVYYCARGGYYYGTSYYFDYWGQGTLVTVS VL: DIQMTQSPSSLSASVGDRVTITCRASQDISNHLNWYQQKPGKAPKLLIYYISRFHSGVPSRFSGSGSGTDFTFTISSLQPEDIATYYCQQSKTLPYTFGQGTKLEIKR",0.00038,9.5,
"heavy chain library clone H227 (Fab, V domains shown, See note of m8) VH: QVQLQESGPGLVKPSETLSLTCTVSGFSLIGYDISWIRQPPGKGLEWIGQIWGDGTTDYNSSVKSRVTISKDTSKNQFSLKLSSVTAADTAVYYCARGGYYYGTSYYFDYWGQGTLVTVS VL: DIQMTQSPSSLSASVGDRVTITCRASQDISNHLNWYQQKPGKAPKLLIYYISRFHSGVPSRFSGSGSGTDFTFTISSLQPEDIATYYCQQSKTLPYTFGQGTKLEIKR",0.00054,13.5,
"light chain library clone L6 (Fab, V domains shown, See note of m8) VH: QVQLQESGPGLVKPSETLSLTCTVSGFSLIGYDINWIRQPPGKGLEWIGMIWGDGTTDYNSALKSRVTISKDTSKNQFSLKLSSVTAADTAVYYCARGGYYYGTSYYFDYWGQGTLVTVS VL: DIQMTQSPSSLSASVGDRVTITCRAFQSISNQLNWYQQKPGKAPKLLIYYASRFHSGVPSRFSGSGSGTDFTFTISSLQPEDIATYYCQQSKTLPYTFGQGTKLEIKR",0.00082,20,
"light chain library clone L81 (Fab, V domains shown, See note of m8) VH: QVQLQESGPGLVKPSETLSLTCTVSGFSLIGYDINWIRQPPGKGLEWIGMIWGDGTTDYNSALKSRVTISKDTSKNQFSLKLSSVTAADTAVYYCARGGYYYGTSYYFDYWGQGTLVTVS VL: DIQMTQSPSSLSASVGDRVTITCRAFQAISNQLNWYQQKPGKAPKLLIYYISRFHTGVPSRFSGSGSGTDFTFTISSLQPEDIATYYCQQSKTLPYTFGQGTKLEIKR",0.00074,18,
"light chain library clone L97 (Fab, V domains shown, See note of m8) VH: QVQLQESGPGLVKPSETLSLTCTVSGFSLIGYDINWIRQPPGKGLEWIGMIWGDGTTDYNSALKSRVTISKDTSKNQFSLKLSSVTAADTAVYYCARGGYYYGTSYYFDYWGQGTLVTVS VL: DIQMTQSPSSLSASVGDRVTITCRASQSISNQLNWYQQKPGKAPKLLIYYVSRFHSGVPSRFSGSGSGTDFTFTISSLQPEDIATYYCQQSKTLPYTFGQGTKLEIKR",0.00056,14,
"light chain library clone L129 (Fab, V domains shown, paired with the CDR-grafted heavy chain; See note of m8) VH: QVQLQESGPGLVKPSETLSLTCTVSGFSLIGYDINWIRQPPGKGLEWIGMIWGDGTTDYNSALKSRVTISKDTSKNQFSLKLSSVTAADTAVYYCARGGYYYGTSYYFDYWGQGTLVTVS VL: DIQMTQSPSSLSASVGDRVTITCRASQSISNNLNWYQQKPGKAPKLLIYYTSRFHSGVPSRFSGSGSGTDFTFTISSLQPEDIATYYCQQSKTLPYTFGQGTKLEIKR",0.00045,11,
"light chain library clone L208 (Fab, V domains shown, See note of m8) VH: QVQLQESGPGLVKPSETLSLTCTVSGFSLIGYDINWIRQPPGKGLEWIGMIWGDGTTDYNSALKSRVTISKDTSKNQFSLKLSSVTAADTAVYYCARGGYYYGTSYYFDYWGQGTLVTVS VL: DIQMTQSPSSLSASVGDRVTITCRASQYISNHLNWYQQKPGKAPKLLIYYTSRFHSGVPSRFSGSGSGTDFTFTISSLQPEDIATYYCQQSKTLPYTFGQGTKLEIKR",0.00046,11,
